The values that follow come from article PMC9041834, “Ubiquitin ligase activity inhibits Cdk5 to control axon termination” (PLoS Genetics, 2022).

The experiment has as its target T1, GFP::FSN-1 CRISPR (endogenous FSN-1 N-terminally fused with GFP) (C. elegans, UniProt Q18223 1-332).
T1 construct: FSN-1, F-box protein of C. elegans (orthologue of human FBXO45), expressed from the endogenous locus; also called bgg47; source: C. elegans, endogenous locus tagged by CRISPR/Cas9, in whole animal lysate; not shown: GFP, N-terminal, kept
T1 sequence (looked up): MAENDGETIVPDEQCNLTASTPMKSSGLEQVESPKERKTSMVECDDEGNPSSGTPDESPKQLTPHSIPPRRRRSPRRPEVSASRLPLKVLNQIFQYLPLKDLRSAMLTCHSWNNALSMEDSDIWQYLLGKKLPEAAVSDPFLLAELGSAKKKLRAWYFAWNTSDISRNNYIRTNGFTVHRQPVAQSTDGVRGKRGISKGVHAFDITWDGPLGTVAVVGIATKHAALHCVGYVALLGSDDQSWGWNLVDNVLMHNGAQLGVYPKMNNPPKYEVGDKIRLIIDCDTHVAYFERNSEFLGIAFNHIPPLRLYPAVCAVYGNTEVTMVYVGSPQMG
Description: co-IP; CRISPR-tagged endogenous proteins in whole animal lysates of C. elegans (wild-type background, and rpm-1 LD CRISPR background for the FSN-1 pair); 50 mM Tris HCl pH 7.5, 150 mM NaCl, 1.5 mM MgCl2, 10% glycerol, 0.1% NP-40, 1 mM DTT; anti-FLAG or anti-GFP, protein-G agarose 4 h at 4°C; immunoblot. The following applies: partners not purified. (In general: In western blotting, separated proteins are transferred to a membrane and probed.)

B1: CDK-5::3xFLAG CRISPR (endogenous CDK-5 C-terminally tagged with 3xFLAG) (enzyme)
chain: not shown
notes: CDK-5, serine/threonine kinase of C. elegans (Cdk5 orthologue), expressed from the endogenous locus; also called CDK-5::FLAG; CDK-5::FLAG CRISPR; source: C. elegans, endogenous locus tagged by CRISPR/Cas9, in whole animal lysate; not shown: 3xFLAG, C-terminal, kept
With B1, the “fold change of co-precipitated CDK-5::FLAG, rpm-1 LD CRISPR background against wild-type background” value is approximately 6 fold.
